Starred links: 1 amine or outer side, 2 acyl side, 3 side chain; linkers in the order of their positions; H or OH if unused. Positions of bridges follow the written chain, without caps; N, C: chain ends. Non-standard residues stand in square brackets, D forms with d. Primed or numbered codes have the meaning given here. No end group written: not given here. *: point of attachment. Aph(CCprAc) = 4-aminophenylalanine acylated on the ring amine with 1-cyano-1-cyclopropanecarboxylic acid, N#CC1(C(=O)Nc2ccc(C[C@H](N[*:1])C(=O)[*:2])cc2)CC1; Aph(MSAc) = 4-aminophenylalanine acylated on the ring amine with 2-methanesulfonylacetic acid, CS(=O)(=O)CC(=O)Nc1ccc(C[C@H](N[*:1])C(=O)[*:2])cc1; Aph(SaPr) = 4-amino-L-phenylalanine, ring amine acylated by 3-sulfamoylpropanoic acid, NS(=O)(=O)CCC(=O)Nc1ccc(C[C@H](N[*:1])C(=O)[*:2])cc1; Aph(2Thz) = 4-aminophenylalanine with 1,3-thiazole-2-carbonyl on the ring amine, O=C(Nc1ccc(C[C@H](N[*:1])C(=O)[*:2])cc1)c1nccs1; Aph(Iva) = 4-aminophenylalanine acylated on the ring amine with isovaleric acid, CC(C)CC(=O)Nc1ccc(C[C@H](N[*:1])C(=O)[*:2])cc1; Aph(FAc) = 4-aminophenylalanine acylated on the ring amine with fluoroacetic acid, O=C(CF)Nc1ccc(C[C@H](N[*:1])C(=O)[*:2])cc1; Aph(Prp) = 4-aminophenylalanine acylated on the ring amine with propionic acid, CCC(=O)Nc1ccc(C[C@H](N[*:1])C(=O)[*:2])cc1; 3MeBn = 3-methylbenzylidene (m-xylene unit) bridging two Cys S atoms via thioethers, from alpha,alpha'-dibromo-m-xylene; Aph(iNic) = 4-aminophenylalanine with isonicotinoyl on the ring amine, O=C(Nc1ccc(C[C@H](N[*:1])C(=O)[*:2])cc1)c1ccncc1; Aph(Bz) = 4-aminophenylalanine with benzoyl on the ring amine, O=C(Nc1ccc(C[C@H](N[*:1])C(=O)[*:2])cc1)c1ccccc1; Af3(DkpAc) = 3-amino-L-phenylalanine acylated on the ring amine with 2-(3,6-dioxopiperazin-2-yl)acetic acid; DOTA(Lu) = O=C1CN2CCN3CCN(CC(=O)*)CCN(CC2)CC(=O)[O][Lu]([O]1)[O]C(=O)C3; Phe(3-NHCO(CH2)3SO2NH2) = N[C@@H](Cc1cccc(NC(=O)CCCS(N)(=O)=O)c1)C(=O)O; APAc″ = 2-(4-(amino)piperidin-1-yl)acetic acid, NC1CCN(CC(=O)*)CC1; DOTA = O=C(O)CN1CCN(CC(=O)O)CCN(CC(=O)*)CCN(CC(=O)O)CC1; Pyridine(3,5-bisCH2) = c1ncc(C[*:2])cc1C[*:1]; Acetyl(2-(piperazin-1-yl)) = O=C(CN1CCNCC1)*; mXylylene = c1cc(C[*:1])cc(C[*:2])c1; N6iQui = not defined here; Dab = NCC[C@H](N)C(=O)O; Thp = NC1(C(=O)O)CCOCC1; Dap = NC[C@H](N)C(=O)O
How the values were obtained:
[1] = target: T1, human carbonic anhydrase 12 (CAXII), biotinylated (Sino Biological Cat #10617-H08H) (human, UniProt O43570 25-301, biotinylated (sites not given)); test: SPR (Biacore T200), biotinylated CAXII captured with Biotin CAPture Kit; limit of the category in which no binding is told
T1 construct: Bought protein, biotinylated and captured with the Biotin CAPture Kit; also called hCAXII-bio; carbonic anhydrase XII

[2] = target: T2, human carbonic anhydrase 4 (CAIV), biotinylated (Sino Biological Cat #10472-H08H) (human, UniProt P22748 19-283, biotinylated (sites not given)); test: SPR (Biacore T200), biotinylated CAIV captured with Biotin CAPture Kit; limit of the category in which no binding is told
T2 construct: Bought protein, biotinylated and captured with the Biotin CAPture Kit; also called hCAIV-bio; carbonic anhydrase IV

[3] = target: T3, human carbonic anhydrase 14 (CAXIV), biotinylated (Sino Biological Cat #10458-H08H) (human, UniProt Q9ULX7 16-290, biotinylated (sites not given)); test: SPR (Biacore T200), biotinylated CAXIV captured with Biotin CAPture Kit; limit of the category in which no binding is told
T3 construct: Bought protein, biotinylated and captured with the Biotin CAPture Kit; also called hCAXIV-bio; carbonic anhydrase XIV

[4] = target: T4, human carbonic anhydrase 9 (CAIX) (human, UniProt Q16790 38-459); test: FACS competition on HT-29 cells, competitor tracer 3BP-4149; category C = pIC50 6.1-7.0
Description: (§1) CAIX-expressing human HT-29 colorectal cancer cells (DSMZ, RRID: CVCL_0320) were cultured in McCoys's 5A modified medium (Biochrom, #F1015) including 10% fetal calf serum (FCS), 2 mM L-glutamine, 100 U/ml penicillin and 100 μg/mL streptomycin. Cells were detached with Accutase (Biolegend, #423201) and washed in FACS buffer (PBS including 1% FCS). Cells were diluted in FACS buffer to a final concentration of 500.000 cells per ml. 200 μL of the cell suspension were transferred to a u-shaped non-binding 96-well plate (Greiner) and cells were washed in ice-cold FACS buffer.
(§2) When biotinylated compounds were used an additional incubation step with 1 μg/mL APC-Streptavidin (Miltenyi; #130-106-791) in 50 μL FACS buffer for 30 minutes on ice was performed.
(§3) Cells were washed twice with ice-cold FACS buffer and analyzed in an Attune NxT flow cytometer (Thermo Fisher). Median fluorescence intensities (MFI) of the APC/Cy5-channel were calculated by Attune NxT software.

[5] = target: T4, human carbonic anhydrase 9 (CAIX); test: FACS competition on HT-29 cells, competitor tracer 3BP-2776; category C = pIC50 6.1-7.0
Description: as §1, §2, §3

T3 sequence (Q9ULX7 16-290 limits assumed): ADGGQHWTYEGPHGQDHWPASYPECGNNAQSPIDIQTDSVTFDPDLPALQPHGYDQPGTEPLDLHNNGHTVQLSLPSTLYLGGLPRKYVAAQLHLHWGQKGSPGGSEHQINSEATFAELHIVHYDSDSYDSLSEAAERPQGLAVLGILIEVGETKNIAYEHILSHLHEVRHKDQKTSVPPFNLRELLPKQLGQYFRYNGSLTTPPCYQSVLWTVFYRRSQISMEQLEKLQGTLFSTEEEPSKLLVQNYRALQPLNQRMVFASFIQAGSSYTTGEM
T1 sequence (O43570 25-301 limits assumed): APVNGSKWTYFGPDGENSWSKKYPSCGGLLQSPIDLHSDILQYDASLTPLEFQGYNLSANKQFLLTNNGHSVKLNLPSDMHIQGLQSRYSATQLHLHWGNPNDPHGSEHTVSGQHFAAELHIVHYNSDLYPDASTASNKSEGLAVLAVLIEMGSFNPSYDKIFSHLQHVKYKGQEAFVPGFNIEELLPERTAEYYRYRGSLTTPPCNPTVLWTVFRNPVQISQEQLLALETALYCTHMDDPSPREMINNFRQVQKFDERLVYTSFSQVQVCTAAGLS
T2 sequence (P22748 19-283 limits assumed): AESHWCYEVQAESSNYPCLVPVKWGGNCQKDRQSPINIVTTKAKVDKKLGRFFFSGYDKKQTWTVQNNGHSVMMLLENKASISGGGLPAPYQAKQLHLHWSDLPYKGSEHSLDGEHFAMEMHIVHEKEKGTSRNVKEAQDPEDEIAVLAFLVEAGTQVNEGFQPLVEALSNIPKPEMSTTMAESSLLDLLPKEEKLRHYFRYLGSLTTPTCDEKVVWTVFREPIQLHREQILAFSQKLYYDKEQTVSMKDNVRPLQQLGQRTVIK

B1: 3BP-4501: DOTA-Gln-[Cys(3MeBn)-Glu-pro-Asp-Aph(SaPr)-Leu-Thr-Trp-Ser-Cys]-NH2 (peptide)
peptide: {DOTA}-QCE[dP]D[Aph(SaPr)]LTWSC-NH2
modifications: linker 2-11 via mXylylene
SMILES: CC(C)C[C@@H]1NC(=O)[C@H](Cc2ccc(NC(=O)CCS(N)(=O)=O)cc2)NC(=O)[C@H](CC(=O)O)NC(=O)[C@H]2CCCN2C(=O)[C@H](CCC(=O)O)NC(=O)[C@@H](NC(=O)[C@H](CCC(N)=O)NC(=O)CN2CCN(CC(=O)O)CCN(CC(=O)O)CCN(CC(=O)O)CC2)CSCc2cccc(c2)CSC[C@@H](C(N)=O)NC(=O)[C@H](CO)NC(=O)[C@H](Cc2c[nH]c3ccccc23)NC(=O)[C@H]([C@@H](C)O)NC1=O
notes: Cyclic peptide with uncomplexed DOTA; also called DPI-4501
- pKD [1]: < 6
- pKD [2]: < 6
- pKD [3]: < 6

Binder: {DOTA-APAc″}-VYCE[dP]D[Aph(Prp)]LTWSC-NH2 (linker 3-12 via mXylylene) [3BP-4347]
- pIC50 [4]: 6.1 to 7 pic50

Binder: {DOTA-APAc″}-VYCE[dP]D[Aph(Iva)]LTWSC-NH2 (linker 3-12 via mXylylene) [3BP-4348]
- pIC50 [4]: 6.1 to 7 pic50

B2: 3BP-4555: LuDOTA-PPAc-Gln-[Cys(3MeBn)-Glu-pro-Asp-Af3(Cpsu)-Leu-Thr-Trp-Ser-Cys]-NH2 (peptide)
peptide: QCE[dP]D[Phe(3-NHCO(CH2)3SO2NH2)]LTWSC-NH2
modifications: linker 2-11 via mXylylene; not fully specified (N-terminus); printed as LuDOTA-PPAc-Gln-[Cys(3MeBn)-Glu-pro-Asp-Af3(Cpsu)-Leu-Thr-Trp-Ser-Cys]-NH2; also: lutetium complexed in DOTA
notes: also called natLu-DPI-4452
- pKD [1]: < 6
- pKD [2]: < 6
- pKD [3]: < 6

Binder: {DOTA-APAc″}-VYCE[dP]D[Aph(2Thz)]LTWSC-NH2 (linker 3-12 via mXylylene) [3BP-4180]
- pIC50 [5]: 6.1 to 7 pic50

Binder: {DOTA-APAc″}-VYCE[dP]D[Aph(Bz)]LTWSC-NH2 (linker 3-12 via mXylylene) [3BP-4171]
- pIC50 [5]: 6.1 to 7 pic50

B3: 3BP-3962 (peptide)
peptide: Ac-VYCE[dP]KW[Thp]EWSC-NH2
modifications: linker 3-12 via mXylylene; lactam 6-9
SMILES: CC(=O)N[C@H](C(=O)N[C@@H](Cc1ccc(O)cc1)C(=O)N[C@H]1CSCc2cccc(c2)CSC[C@@H](C(N)=O)NC(=O)[C@H](CO)NC(=O)[C@H](Cc2c[nH]c3ccccc23)NC(=O)[C@@H]2CCC(=O)NCCCC[C@H](NC(=O)[C@H]3CCCN3C(=O)[C@H](CCC(=O)O)NC1=O)C(=O)N[C@@H](Cc1c[nH]c3ccccc13)C(=O)NC1(CCOCC1)C(=O)N2)C(C)C
- pIC50 [5]: 6.1 to 7 pic50

B4: 3BP-4174: DOTA-APAc-Val-{Asp-[Cys(3MeBn)-Glu-pro-Asp-Trp-Leu-Thr-Trp-Dap}-Cys]-NH2 (peptide)
peptide: {DOTA-APAc″}-VDCE[dP]DWLTW[Dap]C-NH2
modifications: lactam 2-11; linker 3-12 via mXylylene
notes: Bicyclic peptide with uncomplexed DOTA; also called DPI-4174
- pKD [1]: < 6
- pKD [2]: < 6
- pKD [3]: < 6

B5: 3BP-4050 (peptide)
peptide: Ac-VYCE[dP][Dab]WLDWSC-NH2
modifications: linker 3-12 via mXylylene; lactam 6-9
SMILES: CC(=O)N[C@H](C(=O)N[C@@H](Cc1ccc(O)cc1)C(=O)N[C@H]1CSCc2cccc(c2)CSC[C@@H](C(N)=O)NC(=O)[C@H](CO)NC(=O)[C@H](Cc2c[nH]c3ccccc23)NC(=O)[C@@H]2CC(=O)NCC[C@H](NC(=O)[C@H]3CCCN3C(=O)[C@H](CCC(=O)O)NC1=O)C(=O)N[C@@H](Cc1c[nH]c3ccccc13)C(=O)N[C@@H](CC(C)C)C(=O)N2)C(C)C
- pIC50 [5]: 6.1 to 7 pic50

Binder: {DOTA-APAc″}-VYCE[dP]D[Aph(MSAc)]LTWSC-NH2 (linker 3-12 via mXylylene) [3BP-4360]
- pIC50 [4]: 6.1 to 7 pic50

Binder: {DOTA-APAc″}-VYCE[dP]D[Af3(DkpAc)]LTWSC-NH2 (linker 3-12 via mXylylene) [3BP-4288]
- pIC50 [4]: 6.1 to 7 pic50

B6: 3BP-3899 (peptide)
peptide: Ac-VYCE[dP]DWLKWSC-NH2
modifications: linker 3-12 via mXylylene; lactam 4-9
SMILES: CC(=O)N[C@H](C(=O)N[C@@H](Cc1ccc(O)cc1)C(=O)N[C@H]1CSCc2cccc(c2)CSC[C@@H](C(N)=O)NC(=O)[C@H](CO)NC(=O)[C@H](Cc2c[nH]c3ccccc23)NC(=O)[C@@H]2CCCCNC(=O)CC[C@H](NC1=O)C(=O)N1CCC[C@@H]1C(=O)N[C@@H](CC(=O)O)C(=O)N[C@@H](Cc1c[nH]c3ccccc13)C(=O)N[C@@H](CC(C)C)C(=O)N2)C(C)C
- pIC50 [5]: 6.1 to 7 pic50

Binder: {DOTA-APAc″}-VYCE[dP]E(N6iQui)WLTWSC-NH2 (linker 3-12 via mXylylene; reading uncertain) [3BP-4328]
- pIC50 [4]: 6.1 to 7 pic50

B7: 3BP-4043 (peptide)
peptide: Ac-VYCE[dP]KWL[dD]WSC-NH2
modifications: linker 3-12 via mXylylene; lactam 6-9
SMILES: CC(=O)N[C@H](C(=O)N[C@@H](Cc1ccc(O)cc1)C(=O)N[C@H]1CSCc2cccc(c2)CSC[C@@H](C(N)=O)NC(=O)[C@H](CO)NC(=O)[C@H](Cc2c[nH]c3ccccc23)NC(=O)[C@H]2CC(=O)NCCCC[C@H](NC(=O)[C@H]3CCCN3C(=O)[C@H](CCC(=O)O)NC1=O)C(=O)N[C@@H](Cc1c[nH]c3ccccc13)C(=O)N[C@@H](CC(C)C)C(=O)N2)C(C)C
- pIC50 [5]: 6.1 to 7 pic50

Binder: {DOTA-APAc″}-VYCE[dP]D[Aph(iNic)]LTWSC-NH2 (linker 3-12 via mXylylene) [3BP-4183]
- pIC50 [5]: 6.1 to 7 pic50

Binder: {DOTA-APAc″}-VYCE[dP]D[Aph(FAc)]LTWSC-NH2 (linker 3-12 via mXylylene) [3BP-4358]
- pIC50 [4]: 6.1 to 7 pic50

B8: 3BP-4503: DOTA-{Glu-[Cys(3MeBn)-Glu-pro-Asp-Af3(Cpsu)-Leu-Thr-Trp-Dap}-Cys]-NH2 (peptide)
peptide: {DOTA}-ECE[dP]D[Phe(3-NHCO(CH2)3SO2NH2)]LTW[Dap]C-NH2
modifications: lactam 1-10; linker 2-11 via mXylylene
notes: Bicyclic peptide with uncomplexed DOTA; also called DPI-4503
- pKD [1]: < 6
- pKD [2]: < 6
- pKD [3]: < 6

B9: 3BP-3583: DOTA-APAc-Val-Tyr-[Cys(3MeBn)-Glu-pro-Asp-Trp-Leu-Thr-Trp-Ser-Cys]-NH2 (peptide)
peptide: {DOTA-APAc″}-VYCE[dP]DWLTWSC-NH2
modifications: linker 3-12 via mXylylene
notes: Cyclic peptide with uncomplexed DOTA; also called DPI-3583
- pKD [1]: < 6
- pKD [2]: < 6
- pKD [3]: < 6

Binder: {DOTA(Lu)}-QCE[dP]D[Aph(SaPr)]LTWSC-NH2 (linker 2-11 via mXylylene; also: DOTA complexing non-radioactive lutetium, also called natLu-3BP-4501) [3BP-4581: LuDOTA-Gln-[Cys(3MeBn)-Glu-pro-Asp-Aph(SaPr)-Leu-Thr-Trp-Ser-Cys]-NH2]
- pKD [1]: < 6
- pKD [2]: < 6
- pKD [3]: < 6

B10: 3BP-4452: DOTA-PPAc-Gln-[Cys(3MeBn)-Glu-pro-Asp-Af3(Cpsu)-Leu-Thr-Trp-Ser-Cys]-NH2 (peptide)
peptide: {DOTA-Acetyl(2-(piperazin-1-yl))}-QCE[dP]D[Phe(3-NHCO(CH2)3SO2NH2)]LTWSC-NH2
modifications: linker 2-11 via 3MeBn
notes: Cyclic peptide with uncomplexed DOTA; also called DPI-4452
- pKD [1]: < 6
- pKD [2]: < 6
- pKD [3]: < 6

Binder: {DOTA-APAc″}-VYCE[dP]D[Aph(CCprAc)]LTWSC-NH2 (linker 3-12 via mXylylene) [3BP-4357]
- pIC50 [4]: 6.1 to 7 pic50

Binder: {DOTA-APAc″}-VYCE[dP]DWLTWSC-NH2 (linker 3-12 via Pyridine(3,5-bisCH2)) [3BP-4141]
- pIC50 [5]: 6.1 to 7 pic50

— patent US20250339569A1 (3B PHARMACEUTICALS, published 2025)
